How the values were obtained:
[1] = biological target: T1, peptide consisting of amino acid residues 111 to 144 of proglucagon; test: ELISA screening of hybridomas against the proglucagon peptides
T1 construct: Synthetic peptide; also called proglucagon (111-144); proglucagon 111-144 antigen
T1 peptide: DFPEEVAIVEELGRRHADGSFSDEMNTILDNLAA

proglucagon = biological target: T2, proglucagon (Homo sapiens (Human), UniProt P01275 21-180); test: epitope assay (chemiluminescent immunoassay)
T2 construct: Native protein in culture supernatants or HPLC fractions of human duodenal cancer cell lines, not purified recombinant protein; also called proglucagon protein

[2] = biological target: T3, human GLP-1 (manufactured by Yanaihara Laboratories) (human, UniProt P01275 98-127, limits assumed); test: competitive ELISA with biotinylated proglucagon (111-144) as labelled antigen
T3 construct: also called glucagon-like peptide-1
T3 peptide (looked up): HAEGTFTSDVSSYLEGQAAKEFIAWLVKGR

[3] = biological target: T4, human GLP-2 (manufactured by Yanaihara Laboratories) (human, UniProt P01275 146-178); test: as above
T4 construct: also called glucagon-like peptide-2
T4 peptide (looked up): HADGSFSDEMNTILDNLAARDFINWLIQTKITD

[4] = biological target: T5, human glucagon (manufactured by Yanaihara Laboratories) (human, UniProt P01275 53-81); test: as above
T5 construct: Glucagon is only the 29-residue hormone cut from it
T5 sequence (P01275 53-81): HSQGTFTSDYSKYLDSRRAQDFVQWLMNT

T2 sequence (P01275 21-180): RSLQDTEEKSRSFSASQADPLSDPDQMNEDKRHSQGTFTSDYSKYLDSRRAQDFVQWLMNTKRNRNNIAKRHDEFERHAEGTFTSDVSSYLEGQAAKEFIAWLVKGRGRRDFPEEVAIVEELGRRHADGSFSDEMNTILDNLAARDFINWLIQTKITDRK

B1: SCC-MGD-913Ab (antibody, V domains shown)
VH: DVKLVESGGGLVKPGGSLKLSCAASGFTFSSFAMTWVRQTPEKRLEWVATISNGGSYTYYPDSVKGRFTISRDNAKNTLYLQMSSLRSEDTAMYYCTRDGAGKGFPLDYWGQGTTLTVSS
VL: NILLTQSPSSLAVSAGEKVTMSCKSSQSVFYSSNQKNYLAWYQQKPGQSPKLLIYWASTRESGVPDRFTGSGSGTDFTLTISSVQAEDLAIYYCHQYFSSLTFGAGTKLELK
notes: Mouse hybridoma monoclonal from immunisation with the proglucagon 111-144 peptide
[1]
  binding result: binds
proglucagon
  binding result: binds
[2]
  binding result: no binding
[3]
  binding result: no binding
[4]
  binding result: no binding

From patent publication WO2016002189A1 (dated 2016)
